According to patent US7481993B2, “Chelators for radioactively labeled conjugates comprising a stabilizing sidechain” (Schering AG, priority 2005, dated 2009):
Several values for one entry are separate records, joined by “and”; a condition that tells them apart may be missing. Identical values can stand only once. * marks the point of attachment. Mercaptoacetyl = O=C(CS)*; Bz = O=C(c1ccccc1)*

Test: Cysteine challenge stability of ^99mTc chelator peptides
Format: physicochemical
Procedure: For the ^99mTc radiolabeling, a peptide as the TFA salt was dissolved in saline at 1 mg/mL and 100 μg (100 μL) was added to a ^99mTc placebo vial. The vial was reconstituted with 0.9 mL technetium ^99mTc sodium pertechnetate containing approximately 20 mCi and saline such that the final preparation volume was 1.1 mL. The vial was heated in a boiling water bath for 10 minutes and cooled at room temperature for 10 minutes.
The radiochemical purity (RCP) of the ^99mTc or ^188Re peptides was measured by gradient reversed phase HPLC using a Eurosphere-100 C18 HPLC column and 0.1% TFA mobile phases moderated with acetonitrile. Radioactive components were detected in the HPLC system using an in-line radiometric detector. Under the gradient conditions employed radiolabeled impurities (for example: ^99mTc glucoheptonate, ^99mTc edetate, and ^99mTc pertechnetate) eluted early (between 1 and 4 minutes), while the radiolabeled peptides eluted much later (between 8 and 20 minutes). In general, two isomeric radiometal complexes were observed, and the HPLC RCP was measured as the sum of the percent areas of the peaks corresponding to the two complexes. Radiochemical purity results for each of compounds are summarized in the examples that follow.
To ^99mTc radiolabelled peptide preparations described in Example 3 was added 150 μg of cysteine (approximately a 7-fold molar excess over peptide), and the preparations were stored at room temperature and monitored by HPLC for up to 12 hours. The amount of ^99mTc cysteine formed over time was noted. The initial HPLC analysis was started within 5 minutes of adding cysteine. In all cysteine challenge studies, a chelator compound containing a stabilizing sidechain was screened vs. the corresponding control chelator compound containing no sidechain. The relative amount of ^99mTc cysteine formed over time correlates inversely with the stability of the chelator (ie. less ^99mTc cysteine indicates higher chelator stability).
Several model chelator peptides were prepared with an N^1—N^2-Cys (N^1, N^2=independently any amino acid) amino acid sequence capable of complexing technetium as a triamide thiol chelator. Various stabilizing sidechains were substituted into the N^1—N^2-Cys chelator in two positions R1 and R2 as depicted in FIG. 4. The compounds were screened in the cysteine challenge experiment described in Example 4. Several experiments were conducted where 1-2 chelators were compared directly to a control chelator containing no stabilizing sidechain (compound GoC1 was also analyzed alone in a further study). Results in Table 5 represent % Peptide complexed to ^99mTc (ie. 100%−the amount of ^99mTc cysteine) vs. time.
Several model chelator peptides were prepared with an (β)Dap-N^2-Cys (N^2=any amino acid) amino acid sequence capable of complexing technetium as an amine diamide thiol chelator. This chelator is the chelator in the somatostatin peptides that were evaluated in Examples 5 and 6. Various stabilizing sidechains were substituted into the (β)Dap-N^2-Cys chelator in two positions R3 and R4 as depicted in FIG. 5. The compounds were screened in the cysteine challenge experiment described in Example 4. Several experiments were conducted where 1-2 chelators were compared directly to a control chelator containing no stabilizing sidechain. Results in Table 6 are the same as described in Example 7.
Two model chelator peptides were prepared with a ma-N^1—N^2 (Ma=mercaptoacetyl; N^1, N^2=independently any amino acid) amino acid sequence capable of complexing technetium as a triamide thiol chelator. This chelator has the thiol donor group at the N-terminus of the peptide. A stabilizing sidechain was substituted into the ma-N^1—N^2 chelator in position R5 as depicted in FIG. 6. The compounds were radiolabeled according to Example 3 with the exception that additional NaOH was added to bring the pH of the preparation up to pH 8.5. […]

[1] = (β)Dap-N2-Cys amine diamide thiol chelators, cysteine challenge
[2] = (β)Dap-N2-Cys amine diamide thiol chelators, cysteine challenge, Initial
[3] = N1-N2-Cys triamide thiol chelators, 150 μg cysteine, room temperature, Initial (within 5 minutes)
[4] = N1-N2-Cys triamide thiol chelators, cysteine challenge
[5] = (β)Dap-N2-Cys amine diamide thiol chelators, cysteine challenge, listed as Dap.GC
[6] = Ma-N1-N2 triamide thiol chelators, preparation pH 8.5, cysteine challenge
[7] = Ma-N1-N2 triamide thiol chelators, preparation pH 8.5, cysteine challenge, Initial

| Substance | % Peptide Complexed to ^99mTc Initial [3] | % Peptide Complexed to ^99mTc 2 h [4] | % Peptide Complexed to ^99mTc 4 h [4] | % Peptide Complexed to ^99mTc 6 h [4] | % Peptide Complexed to ^99mTc 8 h [4] | % Peptide Complexed to ^99mTc 10 h [4] | % Peptide Complexed to ^99mTc 12 h [4] | also measured |
| --- | --- | --- | --- | --- | --- | --- | --- | --- |
| Ac-Tyr-Gly-(β)Dap(COCH2CH2NH2)-Gly-Cys-Ala.amide [Dap-Y.GC] | – | – | – | – | – | – | – | % Peptide Complexed to ^99mTc 2 h [1]: 84.6%; % Peptide Complexed to ^99mTc 4 h [1]: 84.1%; % Peptide Complexed to ^99mTc 6 h [1]: 82.9%; % Peptide Complexed to ^99mTc 8 h [1]: 80.7%; % Peptide Complexed to ^99mTc 10 h [1]: 80.0%; % Peptide Complexed to ^99mTc 12 h [1]: 77.2%; % Peptide Complexed to ^99mTc Initial [2]: 93.7% |
| Ac-Tyr-Gly-(β)Dap-Gly-Cys-Ala.amide [Dap.GC2] | – | – | – | – | – | – | – | % Peptide Complexed to ^99mTc 2 h [1]: 67.7%; % Peptide Complexed to ^99mTc 4 h [1]: 55.1%; % Peptide Complexed to ^99mTc 6 h [1]: 49.6%; % Peptide Complexed to ^99mTc 8 h [1]: 44.7%; % Peptide Complexed to ^99mTc 10 h [1]: 38.0%; % Peptide Complexed to ^99mTc 12 h [1]: 38.7%; % Peptide Complexed to ^99mTc Initial [2]: 83.4% |
| Ac-Tyr-Gly-Gln-Gly-Cys-Ala.amide (Ac-YGQGCA-NH2) | 92.9% and 96.3% | 88.7% and 88.3% | 88.8% and 86.1% | 86.6% and 84.0% | 85.6% and 82.0% | 83.8% and 77.6% | 84.2% and 75.9% | – |
| Ac-Tyr-Gly-Glu-Gly-Cys-Ala.amide (Ac-YGEGCA-NH2) | 91.4% | 84.1% | 78.1% | 73.3% | 67.4% | 60.1% | – | – |
| Ac-Tyr-Gly-Gly-(D)Orn-Cys-Ala.amide [GoC2] | 94.3% | 91.1% | 89.1% | 89.2% | 89.0% | 87.2% | 86.9% | – |
| Ac-Tyr-Gly-Gly-Gly-Cys-Ala.amide (Ac-YGGGCA-NH2) [GGC2, control chelator, no stabilizing sidechain] | 90.1% and 92.0% and 95.7% and 93.6% | 70.7% and 80.7% and 79.3% and 81.0% and 77.8% | 61.8% and 72.0% and 70.5% and 73.3% and 67.5% | 57.1% and 65.7% and 65.6% and 61.0% and 60.4% | 46.2% and 61.0% and 57.8% and 53.0% and 54.7% | 39.1% and 59.0% and 55.1% and 48.0% and 50.2% | 33.3% and 57.2% and 44.5% and 41.2% and 46.6% | – |
| Ac-Tyr-Gly-Gly-His-Cys-Ala.amide (Ac-YGGHCA-NH2) | 78.8% | 74.3% | 72.9% | 70.9% | 68.8% | 69.2% | 67.9% | – |
| Ac-Tyr-Gly-Gly-Orn-Cys-Ala.amide [GOC] | 98.2% | 93.8% | 90.0% | 86.1% | 80.0% | 78.1% | 88.6% | – |
| Ac-Tyr-Gly-Met-Gly-Cys-Ala.amide (Ac-YGMGCA-NH2) | 93.9% | 92.4% | 89.3% | 85.9% | 82.0% | 79.9% | 77.2% | – |
| Bz-Gly-(β)Dap-Gly-Cys-Ala.amide [Dap.GC1] | – | – | – | – | – | – | – | % Peptide Complexed to ^99mTc 2 h [1]: 78.1%; % Peptide Complexed to ^99mTc 2 h [5]: 78.9%; % Peptide Complexed to ^99mTc 4 h [1]: 62.7%; % Peptide Complexed to ^99mTc 4 h [5]: 42.6%; % Peptide Complexed to ^99mTc 6 h [1]: 57.8%; % Peptide Complexed to ^99mTc 6 h [5]: 51.6%; % Peptide Complexed to ^99mTc 8 h [1]: 51.9%; % Peptide Complexed to ^99mTc 8 h [5]: 46.3%; % Peptide Complexed to ^99mTc 10 h [1]: 46.2%; % Peptide Complexed to ^99mTc 12 h [1]: 43.3%; % Peptide Complexed to ^99mTc 12 h [5]: 37.6%; % Peptide Complexed to ^99mTc Initial [2]: 81.7% |
| Bz-Gly-(β)Dap-Met-Cys-Ala.amide [Dap.MC] | – | – | – | – | – | – | – | % Peptide Complexed to ^99mTc 2 h [1]: 95.4%; % Peptide Complexed to ^99mTc 4 h [1]: 89.8%; % Peptide Complexed to ^99mTc 6 h [1]: 92.6%; % Peptide Complexed to ^99mTc 8 h [1]: 91.6%; % Peptide Complexed to ^99mTc 10 h [1]: 88.4%; % Peptide Complexed to ^99mTc 12 h [1]: 89.7%; % Peptide Complexed to ^99mTc Initial [2]: 97.4% |
| Bz-Gly-Gly-Gln-Cys-Ala.amide (Bz-GGQCA-NH2; SMILES C[C@H](NC(=O)[C@H](CS)NC(=O)[C@H](CCC(N)=O)NC(=O)CNC(=O)CNC(=O)c1ccccc1)C(N)=O) | 97.8% | 93.2% | 88.7% | 82.4% | 80.1% | 78.7% | 73.5% | – |
| Bz-Gly-Gly-Met-Cys-Ala.amide (Bz-GGMCA-NH2; SMILES CSCC[C@H](NC(=O)CNC(=O)CNC(=O)c1ccccc1)C(=O)N[C@@H](CS)C(=O)N[C@@H](C)C(N)=O) | 96.9% | 92.6% | 88.6% | 83.7% | 82.7% | 78.6% | 77.2% | – |
| Ma-(D)Orn-Gly-Tyr-Ala.amide [Ma.oC] | – | – | – | – | – | – | – | % Peptide Complexed to ^99mTc 2 h [6]: 87.4%; % Peptide Complexed to ^99mTc 4 h [6]: 87.2%; % Peptide Complexed to ^99mTc 6 h [6]: 84.9%; % Peptide Complexed to ^99mTc 8 h [6]: 85.9%; % Peptide Complexed to ^99mTc 10 h [6]: 84.1%; % Peptide Complexed to ^99mTc 12 h [6]: 82.7%; % Peptide Complexed to ^99mTc Initial [7]: 100% |
| Ma-Gly-Gly-Tyr-Ala.amide (Mercaptoacetyl-GGYA-NH2; SMILES C[C@H](NC(=O)[C@H](Cc1ccc(O)cc1)NC(=O)CNC(=O)CNC(=O)CS)C(N)=O) [Ma.GG, control chelator, no stabilizing sidechain] | – | – | – | – | – | – | – | % Peptide Complexed to ^99mTc 2 h [6]: 91.3%; % Peptide Complexed to ^99mTc 4 h [6]: 75.7%; % Peptide Complexed to ^99mTc 6 h [6]: 61.2%; % Peptide Complexed to ^99mTc 8 h [6]: 48.7%; % Peptide Complexed to ^99mTc 10 h [6]: 42.2%; % Peptide Complexed to ^99mTc 12 h [6]: 32.7%; % Peptide Complexed to ^99mTc Initial [7]: 100% |
